Target: heavy meromyosin-like fragment of myosin Va (MyoV-HMM), with its bound calmodulin (mouse | not stated) (UniProt Q99104)
Sequence (Q99104 1-1090): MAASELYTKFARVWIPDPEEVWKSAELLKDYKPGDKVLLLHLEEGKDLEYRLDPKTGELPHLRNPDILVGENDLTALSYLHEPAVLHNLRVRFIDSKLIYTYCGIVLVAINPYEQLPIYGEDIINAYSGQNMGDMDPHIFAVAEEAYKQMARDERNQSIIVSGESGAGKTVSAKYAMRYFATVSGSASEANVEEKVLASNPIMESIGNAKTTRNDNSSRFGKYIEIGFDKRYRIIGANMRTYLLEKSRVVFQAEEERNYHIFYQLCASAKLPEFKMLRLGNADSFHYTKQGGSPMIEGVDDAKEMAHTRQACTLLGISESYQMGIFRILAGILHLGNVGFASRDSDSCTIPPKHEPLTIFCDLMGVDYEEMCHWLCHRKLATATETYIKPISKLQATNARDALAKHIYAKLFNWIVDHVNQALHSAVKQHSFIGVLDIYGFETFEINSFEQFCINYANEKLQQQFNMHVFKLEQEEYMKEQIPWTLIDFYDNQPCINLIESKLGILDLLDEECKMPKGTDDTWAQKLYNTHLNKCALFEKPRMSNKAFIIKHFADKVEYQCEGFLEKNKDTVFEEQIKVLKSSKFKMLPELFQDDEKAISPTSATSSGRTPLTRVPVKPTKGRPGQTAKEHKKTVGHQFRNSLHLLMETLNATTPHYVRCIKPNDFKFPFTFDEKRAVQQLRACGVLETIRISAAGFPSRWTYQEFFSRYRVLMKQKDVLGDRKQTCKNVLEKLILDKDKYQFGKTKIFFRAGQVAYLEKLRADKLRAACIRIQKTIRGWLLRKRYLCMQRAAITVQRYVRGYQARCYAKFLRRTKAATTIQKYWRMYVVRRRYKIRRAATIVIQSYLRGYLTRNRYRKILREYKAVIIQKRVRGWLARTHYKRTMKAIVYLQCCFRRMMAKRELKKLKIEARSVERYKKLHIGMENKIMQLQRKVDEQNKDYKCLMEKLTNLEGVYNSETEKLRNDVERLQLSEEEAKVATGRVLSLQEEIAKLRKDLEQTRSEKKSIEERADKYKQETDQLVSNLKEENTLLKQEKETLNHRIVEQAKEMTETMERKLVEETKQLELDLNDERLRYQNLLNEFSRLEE

“Alexa-Fluor-568-labelled calmodulin (from UniProt P62157 1-149) (natural protein)” showed a labelled calmodulins exchanged per MyoV-HMM of 3 per MyoV-HMM.
